The experiment concerns the target Flotillin A (FloA) tagged with hexa-histidine (floA-6xHis) (S. aureus Newman). The experiment is described as follows: pull-down; Ni-NTA (IMAC) affinity chromatography of S. aureus Newman membranes solubilised in 50 mM Tris HCl pH 8, 250 mM NaCl, 1% DDM, 4°C; FloA-His held, IsdF-3xFLAG in the 50 mM imidazole eluate detected by anti-FLAG blot; control strain with untagged FloA WT set to 1; called co-immunoprecipitation by the paper.

Flotillin A (FloA) tagged with hexa-histidine (floA-6xHis) (S. aureus Newman), sequence (A6QHB6 whole entry): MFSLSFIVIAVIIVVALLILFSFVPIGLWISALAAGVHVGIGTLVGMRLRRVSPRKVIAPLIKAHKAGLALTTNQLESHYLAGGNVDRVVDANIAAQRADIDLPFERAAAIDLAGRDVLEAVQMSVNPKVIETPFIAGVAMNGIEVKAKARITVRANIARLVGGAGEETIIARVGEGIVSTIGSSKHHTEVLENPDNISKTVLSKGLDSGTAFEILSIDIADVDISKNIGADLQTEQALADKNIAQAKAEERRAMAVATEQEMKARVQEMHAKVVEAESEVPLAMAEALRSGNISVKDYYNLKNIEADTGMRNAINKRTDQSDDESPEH

In turn, “IsdF with a triple FLAG tag (pRB474:isdF-3xFLAG) (from UniProt Q2FHU7 1-322) (natural protein)” displayed a fold IsdF-3xFLAG signal in the Ni-NTA eluate against the strain with untagged FloA WT (set to 1) of 3 fold.

Source of the values: paper PMC10147376.
